Reference: patent publication US20210395381A1 (OSSIANIX, published 2021)

Legend:
[1] = target: T1, recombinant human TfR-1 (human, UniProt P02786 89-760); assay: phage ELISA
T1 construct: Recombinant protein coated at 1 ug/ml in the phage ELISA; also called hTfR1; human transferrin receptor-1

[2] = target: T2, recombinant mouse TfR-1 (mouse, UniProt Q62351 89-763); assay: phage ELISA
T2 construct: Recombinant protein coated at 1 ug/ml in the phage ELISA; also called mTfR1; mouse transferrin receptor-1
T2 sequence (Q62351 89-763 limits assumed): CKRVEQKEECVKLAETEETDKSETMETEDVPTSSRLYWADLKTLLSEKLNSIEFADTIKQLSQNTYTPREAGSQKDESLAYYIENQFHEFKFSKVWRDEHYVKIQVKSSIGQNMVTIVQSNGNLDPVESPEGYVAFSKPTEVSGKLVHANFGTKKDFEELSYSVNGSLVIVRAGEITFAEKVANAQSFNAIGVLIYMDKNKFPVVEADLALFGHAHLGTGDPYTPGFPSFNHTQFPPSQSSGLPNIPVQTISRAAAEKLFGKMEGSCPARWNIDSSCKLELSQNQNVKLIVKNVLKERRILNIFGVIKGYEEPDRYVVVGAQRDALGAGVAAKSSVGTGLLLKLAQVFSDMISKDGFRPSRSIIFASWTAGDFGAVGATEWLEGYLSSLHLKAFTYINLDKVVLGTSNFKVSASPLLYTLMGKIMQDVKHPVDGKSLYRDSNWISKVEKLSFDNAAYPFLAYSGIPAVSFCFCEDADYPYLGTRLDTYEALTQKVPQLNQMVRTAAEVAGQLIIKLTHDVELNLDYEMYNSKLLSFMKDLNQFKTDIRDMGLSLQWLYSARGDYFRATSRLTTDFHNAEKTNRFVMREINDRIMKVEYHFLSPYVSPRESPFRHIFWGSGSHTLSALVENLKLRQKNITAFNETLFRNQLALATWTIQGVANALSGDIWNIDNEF

T1 sequence (P02786 89-760 limits assumed): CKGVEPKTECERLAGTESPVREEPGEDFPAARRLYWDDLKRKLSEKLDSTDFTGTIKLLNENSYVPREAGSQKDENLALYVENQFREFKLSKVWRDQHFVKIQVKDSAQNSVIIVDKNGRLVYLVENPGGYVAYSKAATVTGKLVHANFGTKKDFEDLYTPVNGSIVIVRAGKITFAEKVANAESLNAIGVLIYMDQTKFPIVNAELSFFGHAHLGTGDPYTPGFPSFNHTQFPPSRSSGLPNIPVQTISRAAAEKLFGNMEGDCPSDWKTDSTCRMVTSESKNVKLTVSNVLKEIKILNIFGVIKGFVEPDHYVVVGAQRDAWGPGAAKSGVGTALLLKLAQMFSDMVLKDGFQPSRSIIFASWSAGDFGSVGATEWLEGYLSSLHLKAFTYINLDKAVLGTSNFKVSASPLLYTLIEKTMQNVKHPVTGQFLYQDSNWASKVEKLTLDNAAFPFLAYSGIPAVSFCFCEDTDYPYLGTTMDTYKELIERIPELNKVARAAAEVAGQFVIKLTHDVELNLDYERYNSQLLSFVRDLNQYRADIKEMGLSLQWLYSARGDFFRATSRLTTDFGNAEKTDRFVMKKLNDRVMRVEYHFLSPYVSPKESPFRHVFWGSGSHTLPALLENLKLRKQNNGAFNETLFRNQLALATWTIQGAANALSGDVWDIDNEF

Row | Binder | A450 [1] [A450] | A450 [2] [A450]
1 | Clone 8.63 (VNAR, VNAR on phage; Clone 8 framework) VNAR: ARVDQTPQTITKETGESLTINCVLRDSNCALPSTYWYRKKSGSTNEESISKGGRYVETVNSGSKSFSLRINDLTVEDSGTYRCKVYRYLSSILRGCNYRKHDVYGDGTAVTVNA | 0.071 | 0.063
2 | Clone 8.74 (VNAR, VNAR on phage; Clone 8 framework) VNAR: ARVDQTPQTITKETGESLTINCVLRDSNCALPSTYWYRKKSGSTNEESISKGGRYVETVNSGSKSFSLRINDLTVEDSGTYRCKVIAQLSSLQDGCIYRKHDVYGDGTAVTVNA | 0.061 | 0.059
3 | Clone 8.66 (VNAR, VNAR on phage; Clone 8 framework) VNAR: ARVDQTPQTITKETGESLTINCVLRDSNCALPSTYWYRKKSGSTNEESISKGGRYVETVNSGSKSFSLRINDLTVEDSGTYRCKVIAQLSSILRGCNYLAHDVYGDGTAVTVNA | 0.052 | 0.062
4 | Clone 8.65 (VNAR, VNAR on phage; Clone 8 framework) VNAR: ARVDQTPQTITKETGESLTINCVLRDSNCALPSTYWYRKKSGSTNEESISKGGRYVETVNSGSKSFSLRINDLTVEDSGTYRCKVIAQLSSIHDGCNYRKHDVYGDGTAVTVNA | 0.081 | 0.062
5 | Clone 8.72 (VNAR, VNAR on phage; Clone 8 framework) VNAR: ARVDQTPQTITKETGESLTINCVLRDSNCALPSTYWYRKKSGSTNEESISKGGRYVETVNSGSKSFSLRINDLTVEDSGTYRCKVIAQLSSILRGCSGVKHDVYGDGTAVTVNA | 0.063 | 0.06
6 | Clone 8.64 (VNAR, VNAR on phage; Clone 8 framework) VNAR: ARVDQTPQTITKETGESLTINCVLRDSNCALPSTYWYRKKSGSTNEESISKGGRYVETVNSGSKSFSLRINDLTVEDSGTYRCKVIAQLAFWLRGCNYRKHDVYGDGTAVTVNA | 0.083 | 0.062
7 | Clone 8.67 (VNAR, VNAR on phage; Clone 8 framework) VNAR: ARVDQTPQTITKETGESLTINCVLRDSNCALPSTYWYRKKSGSTNEESISKGGRYVETVNSGSKSFSLRINDLTVEDSGTYRCKVIAQLSSILRGCVEPKHDVYGDGTAVTVNA | 0.051 | 0.062
8 | Clone 8.68 (VNAR, VNAR on phage; Clone 8 framework) VNAR: ARVDQTPQTITKETGESLTINCVLRDSNCALPSTYWYRKKSGSTNEESISKGGRYVETVNSGSKSFSLRINDLTVEDSGTYRCKVIAQLSSILSSCHYRKHDVYGDGTAVTVNA | 0.056 | 0.062
9 | Clone 8.70 (VNAR, VNAR on phage; Clone 8 framework) VNAR: ARVDQTPQTITKETGESLTINCVLRDSNCALPSTYWYRKKSGSTNEESISKGGRYVETVNSGSKSFSLRINDLTVEDSGTYRCKVIAQLSSILRGCNYQTSDVYGDGTAVTVNA | 0.052 | 0.061
10 | Clone 8.69 (VNAR, VNAR on phage; Clone 8 framework) VNAR: ARVDQTPQTITKETGESLTINCVLRDSNCALPSTYWYRKKSGSTNEESISKGGRYVETVNSGSKSFSLRINDLTVEDSGTYRCKVIAQLSSAPAGCNYRKHDVYGDGTAVTVNA | 0.065 | 0.061
11 | Clone 8.71 (VNAR, VNAR on phage; Clone 8 framework) VNAR: ARVDQTPQTITKETGESLTINCVLRDSNCALPSTYWYRKKSGSTNEESISKGGRYVETVNSGSKSFSLRINDLTVEDSGTYRCKVIAQLSSILRGCTPHKHDVYGDGTAVTVNA | 0.073 | 0.061
12 | Clone 8.73 (VNAR, VNAR on phage; Clone 8 framework) VNAR: ARVDQTPQTITKETGESLTINCVLRDSNCALPSTYWYRKKSGSTNEESISKGGRYVETVNSGSKSFSLRINDLTVEDSGTYRCKVIAQLSSILKGCNYRKHDVYGDGTAVTVNA | 0.051 | 0.059
13 | Clone 8.75 (VNAR, VNAR on phage; Clone 8 framework) VNAR: ARVDQTPQTITKETGESLTINCVLRDSNCALPSTYWYRKKSGSTNEESISKGGRYVETVNSGSKSFSLRINDLTVEDSGTYRCKVIAQLTEMLRGCNYRKHDVYGDGTAVTVNA | 0.049 | 0.059
